# Patent publication US20210381026A1
# Target: GFP [GFP: P42212]
# Experiment: sandwich cD-IPCR: GFP in buffer captured by anti-GFP pAb on plate, bound cDNA display quantified by qPCR (ΔCt)
# Sequence of cDNA display presenting anti-GFP VHH (LaG-16) (VHH): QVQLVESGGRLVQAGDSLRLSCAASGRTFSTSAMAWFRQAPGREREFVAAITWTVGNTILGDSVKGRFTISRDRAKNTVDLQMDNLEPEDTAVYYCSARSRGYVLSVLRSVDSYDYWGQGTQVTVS
substance,measurement,value
cDNA display presenting anti-GFP VHH (LaG-16),lowest detected GFP concentration (sandwich cD-IPCR),10 ng/mL
